Data as given in paper PMC6291300.
Where two headings read alike, the source gives them in different places.

Columns and labels:
[1] = molecular target: Human FcRn (α-chain and β2m) on stably transfected MDCK cells (human) (UniProt P55899); assay: flow cytometry on cells
[2] = molecular target: Cynomolgus monkey FcRn (α-chain and β2m) on stably transfected MDCK cells (cynomolgus monkey) (UniProt Q8SPV9); assay: flow cytometry on cells
[3] = molecular target: Human FcRn (α-chain and β2m) on stably transfected MDCK cells (human) (UniProt P55899); assay: flow cytometry on cells; remark: listed apart in the source
[4] = molecular target: Rozanolixizumab (1519.g57 IgG4P); assay: SPR
[5] = molecular target: Rozanolixizumab (1519.g57 IgG4P); assay: SPR; remark: listed apart in the source
[6] = molecular target: Rozanolixizumab (1519.g57 IgG4P); assay: SPR; remark: listed apart in the source

Sequence of UniProt Q8SPV9 (Q8SPV9 24-365, chain 1 of 2): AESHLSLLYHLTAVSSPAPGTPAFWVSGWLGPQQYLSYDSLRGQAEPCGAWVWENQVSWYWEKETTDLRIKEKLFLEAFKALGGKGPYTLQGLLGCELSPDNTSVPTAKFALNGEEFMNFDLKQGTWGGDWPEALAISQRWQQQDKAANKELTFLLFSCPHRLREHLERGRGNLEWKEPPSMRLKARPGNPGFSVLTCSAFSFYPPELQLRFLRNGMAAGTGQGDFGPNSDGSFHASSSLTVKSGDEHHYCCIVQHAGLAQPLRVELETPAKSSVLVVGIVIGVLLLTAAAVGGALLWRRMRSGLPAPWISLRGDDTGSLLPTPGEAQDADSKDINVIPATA
Sequence of UniProt Q8SPV9 (Q8SPW0 21-119, chain 2 of 2, further chain): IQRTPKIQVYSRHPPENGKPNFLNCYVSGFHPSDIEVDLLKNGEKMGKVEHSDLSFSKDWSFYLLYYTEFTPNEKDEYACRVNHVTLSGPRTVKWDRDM

| Kd [1] [nM] | Kd [3] [nM] | Molecule | other results |
| --- | --- | --- | --- |
| 0.37 | 0.43 | Rozanolixizumab (1519.g57 IgG4P) (antibody) | Kd [2]: 1 nM |
| 0.44 | 0.42 | 1519.g57 Fab’ | – |
| – | – | Human FcRn extracellular domain (α-chain with β2-microglobulin) (from UniProt P55899 24-297; P61769 21-119) (complex) | Kd [4]: < 0.023 nM; Kd [5]: 0.034 nM |
| – | – | Rat FcRn extracellular domain (α-chain with β2-microglobulin) (complex) chain 1: AEPRLPLMYHLAAVSDLSTGLPSFWATGWLGAQQYLTYNNLRQEADPCGAWIWENQVSWYWEKETTDLKSKEQLFLEAIRTLENQINGTFTLQGLLGCELAPDNSSLPTAVFALNGEEFMRFNPRTGNWSGEWPETDIVGNLWMKQPEAARKESEFLLTSCPERLLGHLERGRQNLEWKEPPSMRLKARPGNSGSSVLTCAAFSFYPPELKFRFLRNGLASGSGNCSTGPNGDGSFHAWSLLEVKRGDEHHYQCQVEHEGLAQPLTVDLDSPARSS chain 2: IQKTPQIQVYSRHPPENGKPNFLNCYVSQFHPPQIEIELLKNGKKIPNIEMSDLSFSKDWSFYILAHTEFTPTETDVYACRVKHVTLKEPKTVTWDRDM | Kd [6]: 99 nM |
